Measurements reported in IntAct's records for PubMed 15990873.

B1: Protein MKS1 (Arabidopsis thaliana (Mouse-ear cress)), Q8LGD5 (parent)
chain: MDPSEYFAGGNPSDQQNQKRQLQICGPRPSPLSVHKDSHKIKKPPKHPAPPPNRDQPPPYIPREPVVIYAVSPKVVHATASEFMNVVQRLTGISSGVFLESGGGGDVSPAARLASTENASPRGGKEPAARDETVEINTAMEEAAEFGGYAPGILSPSPALLPTASTGIFSPMYHQGGMFSPAIPLGLFSPAGFMSPFRSPGFTSLVASPTFADFFSHIWDQD
partner: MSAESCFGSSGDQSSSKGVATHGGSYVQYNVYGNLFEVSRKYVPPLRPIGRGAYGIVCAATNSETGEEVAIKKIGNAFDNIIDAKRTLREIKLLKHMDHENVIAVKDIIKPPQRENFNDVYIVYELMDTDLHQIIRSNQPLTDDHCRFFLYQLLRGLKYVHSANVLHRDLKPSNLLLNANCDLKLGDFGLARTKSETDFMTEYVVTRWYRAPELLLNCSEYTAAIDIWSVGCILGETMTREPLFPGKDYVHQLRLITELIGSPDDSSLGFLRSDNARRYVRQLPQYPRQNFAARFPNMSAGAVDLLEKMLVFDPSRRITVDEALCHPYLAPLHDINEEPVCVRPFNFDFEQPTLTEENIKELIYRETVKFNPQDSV

Variants of: B1
Settings: with mpk4_arath MPK4, Q39024

| effect of a mutation on the interaction | Variant |
| --- | --- |
| decreasing interaction | S30A |
